Experimental data reported in patent EP1516629B1.

Key:
human CD11a (human) = target: T1, human CD11a (human) (UniProt P20701); assay: FACScan, Jurkat cells
T1 sequence (looked up): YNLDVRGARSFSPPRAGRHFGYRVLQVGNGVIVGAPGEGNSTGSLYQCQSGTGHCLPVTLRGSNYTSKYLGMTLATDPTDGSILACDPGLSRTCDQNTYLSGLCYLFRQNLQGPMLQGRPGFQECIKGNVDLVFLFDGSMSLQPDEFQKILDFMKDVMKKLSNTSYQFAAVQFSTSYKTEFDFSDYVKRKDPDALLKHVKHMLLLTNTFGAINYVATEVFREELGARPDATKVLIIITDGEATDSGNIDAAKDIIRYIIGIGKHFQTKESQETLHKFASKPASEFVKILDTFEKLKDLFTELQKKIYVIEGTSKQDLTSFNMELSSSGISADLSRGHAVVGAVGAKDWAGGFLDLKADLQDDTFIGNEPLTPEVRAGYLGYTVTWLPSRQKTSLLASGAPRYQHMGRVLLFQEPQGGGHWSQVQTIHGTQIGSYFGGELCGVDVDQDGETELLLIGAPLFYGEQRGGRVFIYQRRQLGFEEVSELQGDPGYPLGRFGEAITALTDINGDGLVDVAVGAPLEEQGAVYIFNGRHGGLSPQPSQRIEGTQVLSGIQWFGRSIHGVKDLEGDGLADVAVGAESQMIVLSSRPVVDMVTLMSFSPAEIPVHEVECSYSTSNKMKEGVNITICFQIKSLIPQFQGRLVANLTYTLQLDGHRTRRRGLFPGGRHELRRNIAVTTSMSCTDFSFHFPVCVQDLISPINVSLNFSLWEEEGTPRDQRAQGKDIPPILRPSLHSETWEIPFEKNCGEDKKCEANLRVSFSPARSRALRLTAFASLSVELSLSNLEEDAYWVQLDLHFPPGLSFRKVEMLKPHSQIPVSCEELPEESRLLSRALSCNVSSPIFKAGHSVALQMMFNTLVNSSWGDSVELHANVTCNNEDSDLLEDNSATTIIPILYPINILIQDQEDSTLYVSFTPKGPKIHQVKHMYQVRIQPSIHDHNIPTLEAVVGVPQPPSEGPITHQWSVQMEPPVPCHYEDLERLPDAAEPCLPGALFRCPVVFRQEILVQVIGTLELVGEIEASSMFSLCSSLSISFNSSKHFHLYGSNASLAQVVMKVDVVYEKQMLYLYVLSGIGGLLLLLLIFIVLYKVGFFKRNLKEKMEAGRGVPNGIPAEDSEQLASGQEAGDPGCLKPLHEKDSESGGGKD

rhesus CD11a (rhesus) = target: T2, rhesus CD11a (rhesus) (UniProt H9Z8N3); assay: binding to rhesus peripheral blood lymphocytes
T2 sequence: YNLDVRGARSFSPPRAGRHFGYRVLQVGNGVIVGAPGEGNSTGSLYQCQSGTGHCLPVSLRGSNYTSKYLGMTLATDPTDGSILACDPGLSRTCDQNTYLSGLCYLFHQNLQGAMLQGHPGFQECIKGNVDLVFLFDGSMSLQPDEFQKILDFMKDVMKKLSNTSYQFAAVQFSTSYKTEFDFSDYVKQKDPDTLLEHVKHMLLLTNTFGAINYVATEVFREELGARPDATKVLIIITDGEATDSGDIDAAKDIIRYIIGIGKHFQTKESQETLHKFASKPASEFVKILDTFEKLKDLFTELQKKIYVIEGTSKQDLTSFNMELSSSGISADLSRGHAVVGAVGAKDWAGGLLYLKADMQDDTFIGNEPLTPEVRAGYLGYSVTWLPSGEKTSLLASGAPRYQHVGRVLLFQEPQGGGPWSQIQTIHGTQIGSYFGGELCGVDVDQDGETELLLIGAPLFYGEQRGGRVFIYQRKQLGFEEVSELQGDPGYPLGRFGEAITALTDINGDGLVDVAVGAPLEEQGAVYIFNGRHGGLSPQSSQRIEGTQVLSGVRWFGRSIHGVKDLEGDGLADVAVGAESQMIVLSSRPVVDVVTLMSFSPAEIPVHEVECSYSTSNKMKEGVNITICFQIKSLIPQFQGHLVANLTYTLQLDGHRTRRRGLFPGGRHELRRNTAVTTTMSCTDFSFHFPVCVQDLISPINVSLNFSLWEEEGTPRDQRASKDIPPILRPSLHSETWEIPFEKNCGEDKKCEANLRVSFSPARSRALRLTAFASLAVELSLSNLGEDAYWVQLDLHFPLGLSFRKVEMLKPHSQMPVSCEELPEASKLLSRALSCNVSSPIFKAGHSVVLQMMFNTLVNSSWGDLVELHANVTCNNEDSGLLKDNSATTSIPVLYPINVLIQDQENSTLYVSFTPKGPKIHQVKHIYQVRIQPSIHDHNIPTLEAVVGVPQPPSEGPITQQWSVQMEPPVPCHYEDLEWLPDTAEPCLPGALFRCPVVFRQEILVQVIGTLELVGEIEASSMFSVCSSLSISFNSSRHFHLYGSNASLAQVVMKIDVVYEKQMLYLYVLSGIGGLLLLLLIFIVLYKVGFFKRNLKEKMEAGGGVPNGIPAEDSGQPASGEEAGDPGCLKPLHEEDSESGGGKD

Var.EC50/HuIgG1 EC50 (human CD11a (human)): 4.6 | Var.EC50/HuIgG1 EC50 (rhesus CD11a (rhesus)): 5.5
B1: LysH73Arg variant IgG1 (antibody, V domains shown)
VH: EVQLVESGGGLVQPGGSLRLSCAASGYSFTGHWMNWVRQAPGKGLEWVGMIHPSDSETRYNQKFKDRFTISVDRSKNTLYLQMNSLRAEDTAVYYCARGIYFYGTTYFDYWGQGTLVTVSS
VL: DIQMTQSPSSLSASVGDRVTITCRASKTISKYLAWYQQKPGKAPKLLIYSGSTLQSGVPSRFSGSGSGTDFTLTISSLQPEDFATYYCQQHNEYPLTFGQGTKVEIK
